Laboratory results from the supplement of paper PMC10126150.
± gives the standard deviation of the averaged measurements.

Each sequence was assayed on ATP (assay: switch fluorescence ratio, 500 uM ATP over buffer (Cy3 cluster intensity, sum of 5 cycles each) (fold (ratio)); higher = stronger signal-on switching upon ATP binding; sequences stand for … in TCGTCGGCAGCGTCAGATGTGTATAAGAGACAGTTTTTTTTTTTTTTTTTTTTTTTTT…TC). Conditions: aptamer strand: ATP DNA aptamer (quencher-CACCTGGGGGAGTATTGCGGAGGAAGG + anchor), 100 nM annealed; ATP concentration: 500 uM.
How it was run: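 For every switch-domain sequence, the fluorescence ratio is the mean of per-cluster values, each being summed target-cycle Cy3 intensity over summed buffer-cycle Cy3 intensity. Clusters outside 100-1000 RFU were excluded. On a modified Illumina MiSeq flow-cell, the Cy3-labelled switching-strand clusters were annealed to 100 nM quencher-labelled ATP aptamer, imaged in selection buffer and then after 15 min with 500 uM ATP at 22 °C. Five such cycles were run, with NaOH stripping and re-annealing between them.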
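Note: ATP exposure 15 min at 22 °C before imaging.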

Row | Sequence | switch fluorescence ratio
1 | TGCAGGGATC | 1.03 ± 0.017
2 | TGCAGGGGCG | 1.04 ± 0.14
3 | TGCAGGTAGG | 1.04 ± 0.036
4 | TGCAGGTTGG | 1.03 ± 0.036
5 | TGCAGTCTGT | 0.988 ± 0.034
6 | TGCAGTGGTT | 1.01 ± 0.03
7 | TGCAGTTTGA | 1.02 ± 0.012
8 | TGCATAAGAA | 0.955 ± 0.03
9 | TGCATAATCT | 1.04 ± 0.026
10 | TGCATAGGGG | 0.999 ± 0.018
11 | TGCATGCAGG | 1.02 ± 0.015
12 | TGCATGGGCT | 1.05 ± 0.12
13 | TGCATGGGGG | 0.999 ± 0.044
14 | TGCATGTCCT | 1.029 ± 0.0088
15 | TGCATGTGGC | 0.988 ± 0.012
16 | TGCATTAGAG | 1.02 ± 0.034
17 | TGCATTTAGT | 1.006 ± 0.0086
18 | TGCATTTTAC | 1.28 ± 0.082
19 | TGCCAGATTT | 0.993 ± 0.041
20 | TGCCCGGGGG | 1.24 ± 0.26
21 | TGCCCGTACG | 1 ± 0.033
22 | TGCCGACGTA | 1.03 ± 0.017
23 | TGCCGGCGCT | 0.989 ± 0.038
24 | TGCCGGGGAC | 1.04 ± 0.034
25 | TGCCGGGGGA | 1.01 ± 0.018

Row | Sequence | switch fluorescence ratio
26 | TGCCGGGGGG | 0.99 ± 0.011
27 | TGCCGTTTTC | 1.04 ± 0.011
28 | TGCCTAAAGT | 0.976 ± 0.016
29 | TGCCTAAATA | 1 ± 0.031
30 | TGCCTGCGGA | 1.001 ± 0.005
31 | TGCCTTGAGA | 1 ± 0.015
32 | TGCGAAGGAG | 0.9794 ± 0.0063
33 | TGCGAATGAG | 0.993 ± 0.0049
34 | TGCGACAGTT | 1.006 ± 0.0029
35 | TGCGACGATG | 1.03 ± 0.027
36 | TGCGACTGG | 0.9979 ± 0.0067
37 | TGCGATGTAG | 0.9889 ± 0.005
38 | TGCGATTAAG | 1 ± 0.047
39 | TGCGATTCG | 0.9931 ± 0.0076
40 | TGCGATTGGT | 1.01 ± 0.012
41 | TGCGCAACTT | 1.0306 ± 0.001
42 | TGCGCATAGA | 1.02 ± 0.018
43 | TGCGGAGAAT | 1.028 ± 0.0026
44 | TGCGGCAATT | 1.09 ± 0.012
45 | TGCGGCGCTT | 1.97 ± 1.3
46 | TGCGGGAGTG | 0.965 ± 0.023
47 | TGCGGGGAAT | 0.9707 ± 0.0068
48 | TGCGGGGGCT | 1.002 ± 0.0025
49 | TGCGGGGGGC | 0.991 ± 0.012
50 | TGCGGGGTTA | 0.986 ± 0.024

Row | Sequence | switch fluorescence ratio
51 | TGCGGGTAGG | 1.03 ± 0.012
52 | TGCGGTGGGG | 0.976 ± 0.013
53 | TGCGGTTAGC | 1.004 ± 0.006
54 | TGCGTAAGGC | 1.18 ± 0.025
55 | TGCGTAGTGC | 1.09 ± 0.036
56 | TGCGTATATG | 1.005 ± 0.0085
57 | TGCGTGGCGG | 1.02 ± 0.037
58 | TGCGTGTGGG | 1.0208 ± 0.001
59 | TGCGTGTTTT | 1.03 ± 0.015
60 | TGCGTTAT | 1.07 ± 0.036
61 | TGCGTTCGTC | 0.993 ± 0.015
62 | TGCTAATCTG | 0.958 ± 0.025
63 | TGCTACGGCG | 1.02 ± 0.019
64 | TGCTAGCCTC | 0.9724 ± 0.004
65 | TGCTAGGGGG | 0.989 ± 0.02
66 | TGCTAGGGGT | 1.41 ± 0.051
67 | TGCTATACTT | 1.46 ± 0.15
68 | TGCTATTATG | 0.988 ± 0.048
69 | TGCTCATTCG | 1.01 ± 0.024
70 | TGCTCCAAGT | 1.03 ± 0.013
71 | TGCTCCTTTT | 1 ± 0.034
72 | TGCTCGGATG | 0.993 ± 0.03
73 | TGCTCGGGAC | 1.09 ± 0.047
74 | TGCTCTACCT | 1.18 ± 0.057
75 | TGCTCTGCGT | 1.17 ± 0.012

Row | Sequence | switch fluorescence ratio
76 | TGCTGAATCT | 0.996 ± 0.046
77 | TGCTGACCGA | 1.04 ± 0.035
78 | TGCTGCGGCT | 1.01 ± 0.019
79 | TGCTGCTAGC | 0.985 ± 0.036
80 | TGCTGGAGGG | 0.955 ± 0.011
81 | TGCTGGATGA | 1 ± 0.047
82 | TGCTGGCGCG | 1 ± 0.033
83 | TGCTGGGCC | 1.02 ± 0.083
84 | TGCTGGGGCG | 0.9876 ± 0.0022
85 | TGCTGGGGGT | 1.03 ± 0.068
86 | TGCTGGGGTG | 1.04 ± 0.1
87 | TGCTTAAGAT | 0.99 ± 0.023
88 | TGCTTATCTG | 0.99 ± 0.032
89 | TGCTTATTTT | 1.01 ± 0.065
90 | TGCTTCTGAA | 0.9635 ± 0.0092
91 | TGCTTCTTTG | 0.979 ± 0.011
92 | TGCTTGGGTA | 1.01 ± 0.021
93 | TGCTTTAAAC | 0.995 ± 0.032
94 | TGCTTTTTGG | 1.01 ± 0.032
95 | TGGAAAAAAG | 0.9901 ± 0.0015
96 | TGGAAAAAG | 0.989 ± 0.053
97 | TGGAAAACTT | 1.11 ± 0.16
98 | TGGAACAGGG | 1.03 ± 0.036
99 | TGGAACTTTT | 0.974 ± 0.021
100 | TGGAAGCCGG | 0.957 ± 0.037

Row | Sequence | switch fluorescence ratio
101 | TGGAAGGAAG | 0.9998 ± 0.0073
102 | TGGAAGGGTT | 0.994 ± 0.028
103 | TGGAAGTGAG | 0.969 ± 0.055
104 | TGGAAGTTAG | 0.964 ± 0.029
105 | TGGAATGGAT | 1.01 ± 0.043
106 | TGGAATTTTT | 0.987 ± 0.03
107 | TGGACCATTT | 1.01 ± 0.0021
108 | TGGACCGGGG | 1.016 ± 0.0034
109 | TGGACGCGGG | 1.03 ± 0.016
110 | TGGACGGGGA | 1.03 ± 0.031
111 | TGGACGTTGA | 0.994 ± 0.033
112 | TGGACTTATA | 1.02 ± 0.012
113 | TGGACTTGGA | 0.9869 ± 0.0031
114 | TGGAGATTGG | 0.969 ± 0.023
115 | TGGAGCCCCG | 0.999 ± 0.015
116 | TGGAGCGCCG | 1.01 ± 0.028
117 | TGGAGCTCTG | 0.981 ± 0.027
118 | TGGAGGCTTT | 1.009 ± 0.0073
119 | TGGAGGGAGG | 1.01 ± 0.023
120 | TGGAGGGGAT | 1.02 ± 0.075
121 | TGGAGGGGGC | 1.01 ± 0.046
122 | TGGAGGGTCG | 1.021 ± 0.0023
123 | TGGAGTACGG | 1.008 ± 0.0036
124 | TGGAGTTACT | 0.994 ± 0.061
125 | TGGAGTTAGA | 0.996 ± 0.035

Row | Sequence | switch fluorescence ratio
126 | TGGATAAGGT | 1.05 ± 0.13
127 | TGGATAAGTT | 1.03 ± 0.025
128 | TGGATAGGGT | 0.961 ± 0.037
129 | TGGATATGAT | 0.998 ± 0.0028
130 | TGGATATGGT | 1.01 ± 0.013
131 | TGGATCATAA | 0.973 ± 0.068
132 | TGGATCATGG | 0.9753 ± 0.009
133 | TGGATCTTCG | 0.9903 ± 0.0077
134 | TGGATGCGGG | 1.02 ± 0.032
135 | TGGATGGAGA | 1.006 ± 0.008
136 | TGGATGGCC | 1.02 ± 0.032
137 | TGGATGGCCC | 1.02 ± 0.016
138 | TGGATGGGGG | 0.992 ± 0.022
139 | TGGATGTCGT | 1.008 ± 0.0094
140 | TGGATGTGAT | 1.03 ± 0.049
141 | TGGATGTGGG | 1.03 ± 0.031
142 | TGGATGTTTG | 1.02 ± 0.018
143 | TGGATTAGAG | 0.9672 ± 0.0022
144 | TGGATTAGGT | 1.01 ± 0.021
145 | TGGATTATAG | 1.02 ± 0.033
146 | TGGATTTGGA | 0.999 ± 0.02
147 | TGGATTTGGT | 0.988 ± 0.012
148 | TGGATTTTGG | 0.98 ± 0.021
149 | TGGCAATTAG | 1.1 ± 0.074
150 | TGGCACCTTT | 1.11 ± 0.036

Row | Sequence | switch fluorescence ratio
151 | TGGCACGGGC | 1.02 ± 0.047
152 | TGGCAGAGGC | 1.04 ± 0.038
153 | TGGCAGTCGG | 0.978 ± 0.019
154 | TGGCATTTTT | 0.991 ± 0.025
155 | TGGCCACTT | 0.986 ± 0.023
156 | TGGCCGGGCA | 2.13 ± 1.6
157 | TGGCGAAGGT | 0.9747 ± 0.0085
158 | TGGCGCTTTT | 0.9976 ± 0.0079
159 | TGGCGGCTGG | 0.996 ± 0.018
160 | TGGCGGGGCA | 0.998 ± 0.035
161 | TGGCGGTGGC | 0.9806 ± 0.006
162 | TGGCGTAGGT | 1.005 ± 0.0083
163 | TGGCGTAGTT | 0.991 ± 0.037
164 | TGGCGTGTCA | 1.02 ± 0.051
165 | TGGCGTTTAC | 1.46 ± 0.64
166 | TGGCGTTTTG | 0.9687 ± 0.0069
167 | TGGCTCAGGC | 1 ± 0.025
168 | TGGCTCTCAT | 1.02 ± 0.017
169 | TGGCTGTTGA | 1.01 ± 0.018
170 | TGGCTTTGGT | 0.9862 ± 0.0046
171 | TGGCTTTTAC | 1.09 ± 0.056
172 | TGGGAAAAGA | 0.983 ± 0.017
173 | TGGGAAACGT | 1.09 ± 0.027
174 | TGGGAAAGAA | 1.04 ± 0.068
175 | TGGGAAAGGA | 1.01 ± 0.051

Row | Sequence | switch fluorescence ratio
176 | TGGGAAAGGT | 0.994 ± 0.025
177 | TGGGAAATCA | 0.993 ± 0.048
178 | TGGGAAATGT | 1.1 ± 0.23
179 | TGGGAAATTA | 0.999 ± 0.024
180 | TGGGAAGGAT | 1.006 ± 0.0016
181 | TGGGAAGGGC | 1.02 ± 0.03
182 | TGGGACACTG | 0.972 ± 0.035
183 | TGGGACCCCC | 1.34 ± 0.47
184 | TGGGACGTGG | 0.9812 ± 0.0086
185 | TGGGAGAAAA | 1.0069 ± 0.00087
186 | TGGGAGAAAT | 2.39 ± 2.4
187 | TGGGAGACGG | 1.2 ± 0.38
188 | TGGGAGATGT | 0.993 ± 0.015
189 | TGGGAGGACG | 0.97 ± 0.038
190 | TGGGAGGCGT | 0.992 ± 0.02
191 | TGGGAGGGAG | 0.987 ± 0.028
192 | TGGGAGGGTG | 1.02 ± 0.067
193 | TGGGAGTTCC | 1.04 ± 0.036
194 | TGGGATAAGT | 1.01 ± 0.018
195 | TGGGATATAG | 0.994 ± 0.022
196 | TGGGATATTA | 0.9995 ± 0.007
197 | TGGGATCAAG | 1 ± 0.032
198 | TGGGATGGGG | 1.01 ± 0.037
199 | TGGGATTCGG | 1.03 ± 0.092
200 | TGGGATTTAG | 1 ± 0.044
